Experimental data taken from the nanobody polyreactivity screen of Harvey et al. (2022).

Assay: yeast display, Sf9 membrane polyspecificity reagent, FACS + sequencing; frameworks hold sequencing errors
Summary of the method: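 Polyreactivity labels are assigned by the sorting gate from which each nanobody was recovered. The gates were low and high (top ~1%), set on anti-HA fluorescence for expression and streptavidin fluorescence for reagent binding. Before sorting, galactose-induced (36–48 hours) yeast display cells were stained for 1 hour at 4 °C with 10% biotinylated, detergent-solubilized Sf9 membrane reagent.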

Row | Sequence | polyreactivity (PSR sort gate)
1 | QVQLVESGGGLVQAGGSLRLSCAASGSTFGIYAMGWYRQAPGKERELVAAISRSGDSTYYADSVKGRFTISRDNAKNTVYLQMNSLKPEDTAVYYCAADSFRLRYWAVTTHRVQYDYWGQGTQVTVSS | low polyreactivity
2 | QVQLVESGGGLVQAGGSLRLSCAASGFIFGRYAMGWYRQAPGKERELVAAISSGDDTDYADSVKGRFTISRDNAKNTVYLQMNSLKPEDTAVSYCARSRFWSPVIYRRTIEFDSWGQGTQVTVSS | low polyreactivity
3 | QVQLVESGGGLVQAGGSLRLSCAASGSIFSYYAMGRYRQAPGKEREIVAAISWSGGSTYYADSVKGRFTISRDNAKNTVYLQMNSLKPEDTAVYYCAAELSLSWLVPDVPYYYWGQGTQVTVSS | low polyreactivity
4 | QVQLGESGGGLVQAGGSLRLSCAASGSIFVRNAMGWYRQAPGKERELVAAINGRGTSTYYADSVKGRFTISRDNAKNTVYLQMNSLKPEDTAVYYCATSLTSPRRAYGYWGQGTQVTVSS | high polyreactivity
5 | QVQLVESGGGLVQAGGSLRISCAASGSTFDANAMGRYRQAPGKEREMVAANSYSGGTTYYADSVKGRFTISRDNAKNTVYLQMNSLKQEDTAVYYCATRKAFTAGSYNVYYGEYYWGQGTQVTVSS | low polyreactivity
6 | QVQLVESGGGLVQAGGSLRLSCAASGRIFSFYAMGWYRQAPGKERELVATISKRAGSTYYADSVKGRFTISRDNAKNTVYLQMNSLKPEDTAVYYCAARKWYYASSRWRDYWGQGTQVTVSS | high polyreactivity
7 | QVQLVESGGGLVQAGGSLRLSGAASGFIFGSYAMGWYRQAPGKERELVAAISRSGGRTYYADSVKGRFTISRDNAKNTVYLQMNSLKPEYTAVYYCNAVGYGVFFRSSDRTKFDYWGQGTQVTVSS | high polyreactivity
8 | QVQLVESGGGLVQAGGSLRLSCAASGRTFSKYAMGWYRQAPGKERELVAAIRWSGGSTYYADSVKGRFTISRDNAKNTVYLQMNSLKPEDTAVYYSAKRSRGLKFDYWGLGTQVTVSS | high polyreactivity
9 | QVQLVESGGGLVQAGGSLRLSSAASGSTFLYVMGWYRQAPGKERELVAAISESGGSTYYADSVKGRFTISRDNAKNTVYLQMNSLKPEDTAVYYCAADLPTGLQYRYYRVDYWGHGTQVTVSS | low polyreactivity
10 | QVQLVESGGGLVQAGGSLRLSCAASGSTFGHYAMGWYIQAPGKERELVAGITDTDNHELRRLCEGRFTISRDNAKNTVYLQMNSLKPEDTAVYYCNADDTYYPLCGITGYDYWGQGTQVTVSS | low polyreactivity
11 | QVQLVESGGGIVQAGGSLRLSCAASGSTFGTYAMGWYRQAPGKEMELVAAISNSGGSTYYADSVKGRFTISRDNAKNTVYLLMNSLKQEDTAVYYCNTDGLVRNGPFYSWGQGTQVTVSS | low polyreactivity
12 | QVQLVESGGGLVQAGGSLRLSCAASGRIFFAYAMGWYRQAQGKEREFVAAISDNDGSTYYADSVKGRFTISRDNAKNTVYLQMNSLKPEDTAVYYCNADLGYVYDYCGQGTQVTVSS | low polyreactivity
13 | QVQLVESGGGLVQAGGSLRLSCAASGSTFDHYDMGWSIPAPGKERELVAAISYSGSTTVYADSVKGRFTISRDNAMNTVYLQMNSLKPEDTAVYYCAASGDVIQSPMDYWGQGTQVTVSS | low polyreactivity
14 | QVQLVESGVGLVQARRSLRLSCAASGSSKLILWDGIDRRLGKKGSWLPLFVLVVLRNYADSVKGRFTISRDNAKNTVYLQMNILKPDDTEVYYCAATAIGSGGWGDYWGLGTQVTVSS | low polyreactivity
15 | QVQLIESGGVLVQAGGSLRLSCAASGSTFTINVMGWYRQAPGKERELVAAINGGGRTNYADSVKGRFTISRDNAKNTVYLQINSLKPEDTAVYYCAADGLSNVRQMDYWGQGTQVTVSS | low polyreactivity
16 | QYQLVESVGGLDQAGGTLRLSCAASARIFSYYAMGWYRQAPGKERELVATISYSGGSTYYADSVKGRFTISRDKAKNTVYLQMNSLKPEDSAVYYCAATRYPYFSFVRFPSRRFNYWGQGTQVTVSS | high polyreactivity
17 | QVQLVESGGGLVQAGGSLRLSCAASGGIFVSYAMGLYRQAPGKERELVARINSVDGTNYADSVKGRFTISRDNAKNTVYLQMNSLKPEDTAVYYCAVRSPVLASDYGYYFLRDYWGQGTQVTVSS | low polyreactivity
18 | QVQLVESGGGLVQAGGSLRLSCAASGRIFGVYVMGWYRQAPGKERELVAAISWSGSHTYYADSVKGRFTISRDNAKNTVYLQMNSLKPEDTAVYYCNADSSPEYTGPGLDWYDYWGQGTQVTVSS | low polyreactivity
19 | QVQLVESGRGLVQAGGSLRLSCAASGLILGVNVMGWYRQAPGKERELVAAISGGGRTYYADSVKGRFTISRDNAKNTVYLQMNSLKPDDTAVYYCATVRRRLSLTYDYWGQVTQVTVSS | high polyreactivity
20 | QVQLGESGGGLVQAGGSLRLSCAASGRIFSYYAMGWYRQAPGKERELVATIDRSGDPTSYADSVKGRFTISRDNAKNTVYLQMNSLKPEDTAVYYCAATSKRARYDSWGHGTQVTVSS | high polyreactivity
21 | QVQLVESGGGLVQAGGSLRLSCAASGRTFYLYTMGWYRQAPGKERELVAAISRGGRTYADSVKGRFTISRDNAKNTVYLQMNSLKPEDTAVYYCAAESVYQGWSYQHGKGDYWGQGTQVTVSS | low polyreactivity
22 | QVKLVESGGGLVQAGGSLRLSCASSGFTFFHYAKGWYRQAPGKERELVAAISWSGGSTYYADTVKGRFTISRDNAKNTVYLQMNSLKPEDTAVYYCAADGGSTAFDYWGQGTQVTVSS | low polyreactivity

Row | Sequence | polyreactivity (PSR sort gate)
23 | QVQLVESGGGLVQAGGSLRLSCAASGRILWFYAMGWYRQAPGKERELVAAISWNGGSTYYADSVKGRFTISRDNAKNTVYLQMNSLKPEDTAVYYCAARPFHIHLSLEYNYWGQGTQVTVSS | low polyreactivity
24 | QVQLVESGGGLVQAGGSLRLSCAASGFTFVNYAMGWYRQAPGKERELVAASSRSGGRTYYADSVKGRFTISRDNAKNTVYLQKNSLKPEDTAVYYCARLLLSPEYGYWGQGTQVTVSS | high polyreactivity
25 | QVQLVESGGGLVQAGGSLRLSSAASGFIFFCYTMGWYRQARGKERELVAAISSTGARTYYADSVKGSFTISRDNAKNTVYLQMNSLKPEDTAFYYCAARLSYQGRGYRFWGQGTQVTVSS | high polyreactivity
26 | QVQLVVSGGGLVQAGGILRFSCAASGRTIWYNAMGWYRQAPGKERELVASISRSGGSTYYADSVKGRFTISRDNAKNTVYLQMNSLKPEDTAVYYCAAESFDYTTWYGYWGQGTQVTVSS | high polyreactivity
27 | QVQLVDSGGGLVQAGGSLRLSSPASGFIIGLYAMGWYRQEPGKERELVAAISTSSGITYYADSVKGRFTISRDNAKNSVYLQMNSLKPEDTAVYYCAARGHYYDFCGQGTQVTVSS | low polyreactivity
28 | QVQLVESGGGLVQAGGRLRLSCAASGRISYYYTMGWYRQAPGKERQLVAAISWSGGTTYYADSVKGRFTISRDNAKNTVYLQMNSLKPEDTAVYYCAAREYYTDVHGTRRYDYWGQGTQVTVSS | low polyreactivity
29 | QVQLVESGGGLVQAGGSLRLSCAASGSTFPQYAMGWSRQAPGKERELVAAISWSGGRTYYADSVKGRFTISRDNAKNTVYLQMNSLKPEDTAVYYCAATYPGQYGYNYWGQGTQVTVSS | high polyreactivity
30 | QVQLVESGGGLVQAGGRLSLICAASGSIFPINAMGWYRQAPGKERELVADITSGGSTNYADSVKGRFTISRDNAKNTVYLQMNSLKPEDTAVYYCAADWRYWRWAFDYWGQGTQVTVSS | high polyreactivity
31 | QVQLVESGGGLVQAGGSLRLSCAASGSIARNAMGWYRQAPGKERELVATISSGGGTYYADSVKGRFTISRDNAKNTVYLQMHSLKPEDTAVYYCAADGWEVPWPAIWDSLYEYWGQGTQVTVSS | high polyreactivity
32 | QVQLVESGGGLVQAGGSLRLSCAASGGTFSLYAMGWYRQAPGKEREFVAAISWRGTSTYYADSVKGRFTISRDNAKNTVYLQMNSLKPEDTAVYYCAARAWHEYGSWGQGTQVTVSS | high polyreactivity
33 | QVQLVESGGGLVQAGGSLRLSCAASGLTFSVYAMGWYREAPGKERELVAGITSSVGDTYYADSVKGRFTISRDNAKNTVYLQMNSLKPEDTAVYYCNAKYRTFVSKHDYWGQGTQLTVSS | low polyreactivity
34 | QVQLVESGGGLVQAGGSLRLSCAASGRTFNSYPMGWYRQAPGTERELVAAINYRGTSTYYSDSVKGRFTISRDNAMNTVYLQMNSLKPEDTAVYYCNARQTRSSRINYPEGIYNYWGQGTQVNVSS | high polyreactivity
35 | QVQLVESGGGLVQAGGSLRISCAASGRIFKVYAMGWYRQAPGKERELVAAMSRSGGSTYYADSVKGRFTISRDNAKKTVYFQMNSLKPEDTAVYYCHAYFVYGHACGYDYWGQGSQVTVSS | high polyreactivity
36 | QVQLVESGGGLVQAGGSLRISCASSGRIFKINAMGWYRQAPGKERELVATITRDGRTYYADSVKGRFTISRDNAKKTVYLQMNSLKPDDTAVYYCNVRRAFSGWRGYDYWGQGTQVTVSS | high polyreactivity
37 | QVQLVESGGGLVQAVGSLRLSCDASGLTFNSNAMGWYIQAHGKDRELVATISRGGTTNYADSVKGRFTISRDNAKNTVYLQMNSLKPEDTAVYYCNALRGSRYDYWGQGTQVTVSS | high polyreactivity
38 | QVQRVESGGGLVQAGGSLRLSCAASGRIFPSNAMGWYRQAPGKERELVAGINTRSGRTYYADSVKGRFTNSRDNAKKTDYLQLNSLKPEDTAVYYCAAARAWPLNYWYVPYDYWGQGTQVTVSS | high polyreactivity
39 | QVHLVESGGGLVQAGGSLRLSCDASGSTFYCYAMGWYRQAPGKERELVASISWSGGRSYYADSVKGRFTISRDNAKNTDYLQMNSLYPEDTAVYYCAARRKGRYDYWGQGTQVTVSS | high polyreactivity
40 | QVQLVESGGGLVQAAGSLRLSCAASGFTFLRYAMGWYRQAPGKERELVAGITKSGGTTYYADSVKGRFTISRDNAKNTVYLQMNSLKPEDTAVYYCNALYSRRRRPYTDDYDYWGQGTQVTVSS | high polyreactivity
41 | QVQLVESGGGLVQAGGSLRLSCAASGLTFVWYGMGRYRQAPGKERELVAAITRGGSTYYADSVKGRFTISRDNAKNTVYLQMNSLKPEDTAVYYCAARRWERRVRPGYYPYDYWGQGTQVTVSS | high polyreactivity
42 | QVQLEESGGGLVQAGGSLRLSCAASGFTFRKNAMGWYRQAPGKERELVAAISSGGGRTYYADSVKGRFTISRDNANNTVYLQMNSLKPEDTAVYYCAVSIGRYPYRYGYWGQGTQVTVSS | high polyreactivity
43 | QVQLVESGGGLVQAGGSLRLSCAASGRNFSLYAMGWYRQAPGKERELVAAISWSGGNTYYADSVKGRFTISRDNAKNTVYLQMNSLKPEDTAVYYCNTVSYRGDWNPSKYYYWGQGTQVTLSS | high polyreactivity
